From article PMC4837482, “The complex binding mode of the peptide hormone H2 relaxin to its receptor RXFP1” (Nature Communications, 2016)
Changes are numbered by the printed parent chain.

Tests used:
Experiment in all cases: cAMP activity assay (pCRE β-galactosidase reporter), transfected HEK293T cells
Assay type in all cases: cell-based
RXFP1 A55L = molecular target: T1, RXFP1 A55L (Homo sapiens, UniProt Q9HBX9, A77L); settings: construct A55L, ±s.e.m.
T1 construct: cells expressing full-length RXFP1 and mutants; expressed in transfected cells; host or cells: HEK293T
T1 sequence (Q9HBX9 23-757 A77L limits assumed): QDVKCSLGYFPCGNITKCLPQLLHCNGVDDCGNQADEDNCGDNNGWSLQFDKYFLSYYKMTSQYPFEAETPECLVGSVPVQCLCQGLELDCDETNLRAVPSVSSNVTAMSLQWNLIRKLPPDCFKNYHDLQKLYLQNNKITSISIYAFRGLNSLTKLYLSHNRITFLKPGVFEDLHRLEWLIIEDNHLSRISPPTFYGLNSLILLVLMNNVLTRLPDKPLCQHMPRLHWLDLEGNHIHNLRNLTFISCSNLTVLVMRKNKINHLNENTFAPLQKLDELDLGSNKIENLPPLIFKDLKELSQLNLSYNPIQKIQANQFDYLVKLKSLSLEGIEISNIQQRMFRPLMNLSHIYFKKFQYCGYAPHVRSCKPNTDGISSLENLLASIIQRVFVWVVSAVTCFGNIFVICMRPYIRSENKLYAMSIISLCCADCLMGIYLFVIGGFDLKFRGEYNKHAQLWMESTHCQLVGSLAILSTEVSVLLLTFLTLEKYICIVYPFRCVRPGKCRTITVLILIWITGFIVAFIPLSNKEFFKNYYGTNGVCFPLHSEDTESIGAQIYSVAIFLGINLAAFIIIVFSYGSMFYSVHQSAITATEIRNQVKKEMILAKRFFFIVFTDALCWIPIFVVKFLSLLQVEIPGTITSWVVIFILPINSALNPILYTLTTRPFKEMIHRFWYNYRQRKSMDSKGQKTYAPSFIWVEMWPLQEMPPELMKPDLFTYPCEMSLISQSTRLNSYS
Experimental: (§1) Media was aspirated and plates stored frozen at −80 °C overnight. […] H2 relaxin dilutions were prepared in minimal media containing 1% DMSO. Positive and negative control stimulations were achieved by incubation with 5 μM Forskolin and minimal media/1% DMSO, respectively. Plates were developed by 10 min of incubation in 25 μl of lysis buffer 1 (100 mM Na2HPO4, pH 8.0, 0.2 mM MgSO4 0.01 mM MnCl2); a further 10 min of incubation in 100 μl of buffer 2 (100 mM Na2HPO4, pH 8.0, 2 mM MgSO4, 0.1 mM MnCl2, 0.5% Triton X-100, 40 mM β-mercaptoethanol); then to each well 25 μl of the β-galactosidase substrate, chlorophenol red-β-D-galactopyranoside (Roche) was added. All incubation steps were conducted with orbital shaking. Color-change was monitored and readings were taken on a Benchmark Plus Microplate Reader (Bio-Rad) at 570 nm. A minimum of three separate experiments were performed, each of them in triplicate, and data were pooled and presented as percentages of the maximum response induced by 5 μM Forskolin±s.e.m.

RXFP1 T61A = molecular target: T2, RXFP1 T61A (Homo sapiens, UniProt Q9HBX9, T83A); settings: construct T61A, ±s.e.m.
T2 construct: cells expressing full-length RXFP1 and mutants; expressed in transfected cells; host or cells: HEK293T
T2 sequence (Q9HBX9 23-757 T83A limits assumed): T1 sequence (Q9HBX9 23-757 A77L limits assumed) with L55A, T61A
Experimental: as §1

RXFP1 S47L48-AA = molecular target: T3, RXFP1 S47L48-AA (Homo sapiens, UniProt Q9HBX9, L70A/S69A); settings: construct S47L48-AA, ±s.e.m.
T3 construct: expressed in transfected cells; host or cells: HEK293T
T3 sequence (Q9HBX9 23-757 S69A/L70A limits assumed): T1 sequence (Q9HBX9 23-757 A77L limits assumed) with S47A, L48A, L55A
Experimental: as §1

[1] = percentage of maximum response to 5 μM Forskolin

Q: For “H2 relaxin: two-chain 6-kDa peptide hormone structurally related to insulin; recombinant human gene-2 H2 relaxin provided by Corthera”, which “H2 relaxin pEC50” value (RXFP1 A55L; cAMP reporter) is on record?
A: The value was 10.75±0.17 (5).

Q: What about the “H2 relaxin Emax” value (RXFP1 A55L; [1]) of the same substance?
A: The value was 123.59±8.51 (5) %.

Q: What about the “H2 relaxin pEC50” value (RXFP1 T61A; cAMP reporter) of the same substance?
A: The value was 11.15±0.17 (5).

Q: What about the “H2 relaxin Emax” value (RXFP1 T61A; [1]) of the same substance?
A: The value was 142.58±15.97 (4) %.

Q: What about the “H2 relaxin pEC50” value (RXFP1 S47L48-AA; cAMP reporter) of the same substance?
A: Its value is 11.07±0.17 (3).

Q: What about the “H2 relaxin Emax” value (RXFP1 S47L48-AA; [1]) of the same substance?
A: The value was 120.9±10.9 (3) %.
